{
  "source": "paper PMC4600981",
  "molecular_target": "FvCamlp (calmodulin like EF hand protein of Flammulina velutipes), freed of the GST tag (Flammulina velutipes)",
  "test": "SEC; Superdex 200, 25 mM Tris-HCl pH 7.5, 150 mM NaCl, 4 °C, flow 0.4 ml/min; in absence (5.0 mM EGTA) and presence of Ca2+ (5.0 mM); monomer to dimer",
  "data": [
    {"substance": "FvCamlp (calmodulin like EF hand protein of Flammulina velutipes), freed of the GST tag (natural protein)", "values": [
      {"measurement": "stoichiometry N", "result": 2}
    ]}
  ]
}
